Source: patent US20150004189A1 (published 2015)

Assays:
[1] = biological target: HLA DQ molecule DQB1*0502 (human); assay: inhibition of radiolabeled peptide binding to purified HLA class II
[2] = biological target: HLA DQ molecule DQB1*0503 (human); assay: as above
[3] = biological target: T1, HLA-DP DPB1*0401 (human); assay: inhibition of radiolabeled peptide binding to purified HLA-DP
T1 chain 1: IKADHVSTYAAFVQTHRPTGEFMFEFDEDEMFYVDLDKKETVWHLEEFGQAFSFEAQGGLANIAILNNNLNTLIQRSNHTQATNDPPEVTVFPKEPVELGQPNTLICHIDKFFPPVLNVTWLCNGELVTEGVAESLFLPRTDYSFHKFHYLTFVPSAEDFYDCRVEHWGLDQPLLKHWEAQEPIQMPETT
T1 chain 2: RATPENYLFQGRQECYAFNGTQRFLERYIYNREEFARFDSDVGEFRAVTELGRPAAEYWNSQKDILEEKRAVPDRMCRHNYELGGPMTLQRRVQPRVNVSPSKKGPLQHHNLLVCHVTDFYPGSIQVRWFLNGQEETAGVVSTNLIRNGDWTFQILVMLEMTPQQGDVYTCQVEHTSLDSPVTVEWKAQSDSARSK

[4] = biological target: HLA-DQ molecule DQB1*0202 (human); assay: inhibition of radiolabeled peptide binding to purified HLA
[5] = biological target: HLA-DQ molecule DQB1*0602 (human); assay: as above
[6] = biological target: HLA-DQ molecule DQB1*0503 (human); assay: as above
[7] = biological target: T2, HLA-DP DPB1*0201 (human); assay: inhibition of radiolabeled peptide binding to purified HLA-DP
T2 chain 1: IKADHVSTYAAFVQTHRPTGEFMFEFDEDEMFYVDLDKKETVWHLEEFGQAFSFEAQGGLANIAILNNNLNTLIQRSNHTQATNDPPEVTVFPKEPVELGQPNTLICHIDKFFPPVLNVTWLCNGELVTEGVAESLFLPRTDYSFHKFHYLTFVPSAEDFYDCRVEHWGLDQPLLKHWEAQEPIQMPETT
T2 chain 2: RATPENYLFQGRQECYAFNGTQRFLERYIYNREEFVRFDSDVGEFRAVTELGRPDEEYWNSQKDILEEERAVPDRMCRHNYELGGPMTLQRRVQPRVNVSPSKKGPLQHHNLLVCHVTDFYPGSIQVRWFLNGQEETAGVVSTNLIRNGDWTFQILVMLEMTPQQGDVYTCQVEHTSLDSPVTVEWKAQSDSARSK

[8] = biological target: HLA-DQ molecule DQB1*0503 (human); assay: inhibition of radiolabeled peptide binding to purified HLA-DQ
[9] = biological target: HLA-DQ molecule DQB1*0602 (human); assay: as above
[10] = biological target: HLA-DQ molecule DQB1*0502 (human); assay: inhibition of radiolabeled peptide binding to purified HLA
[11] = biological target: HLA DQ molecule DQB1*0202 (human); assay: inhibition of radiolabeled peptide binding to purified HLA class II
[12] = biological target: HLA DQ molecule DQB1*0503 (human); assay: as above; remark: listed apart in the source
[13] = biological target: HLA-DP molecule DPB1*2001 (human); assay: inhibition of radiolabeled peptide binding to purified HLA-DP
[14] = biological target: HLA-DQ molecule DQB1*0502 (human); assay: inhibition of radiolabeled peptide binding to purified HLA-DQ
[15] = biological target: HLA-DQ molecule DQB1*0202 (human); assay: as above

IFYDVFFAVANGNEL [Fel d 1 2 (26-40) peptide IFYDVFFAVANGNEL, Peptide ID 3324.1052] was tested, and the IC50 [1] was 6650 nM and the IC50 [2] was 8130 nM.

For GGSILKISNKYHTKG [Bet v 1 (111-125) peptide 3324.0352], the IC50 [3] was 10500 nM.

Binder GTGSLVITASMSGHI [Cla h 8 (151-165) peptide GTGSLVITASMSGHI, Peptide ID 3324.0603] has an IC50 [2] of 13800 nM.

With QIDAFIANAGATADS [Cla h 8 (101-115) peptide QIDAFIANAGATADS, Peptide ID 3324.0601] the IC50 [1] was 819 nM and the IC50 [2] was 84 nM.

With FDAFVAYHIGARIVS [Der p 4 peptide 3324.0971 (position 482)] the IC50 [4] was 4750 nM, the IC50 [5] was 54 nM and the IC50 [6] was 1080 nM.

In the case of GGSILKISNKFHTKG [Aln g 1 (111-125) peptide 3324.0007], the IC50 [3] is reported as 18500 nM and the IC50 [7] is reported as 843 nM.

GGRLAFQEFMIVPSG [Cla h 6 (161-175) peptide GGRLAFQEFMIVPSG, Peptide ID 3324.0588] showed an IC50 [1] of 4950 nM and an IC50 [2] of 2440 nM.

IFSQNMNIKLQMPLY [Cup a 1 (71-85) peptide IFSQNMNIKLQMPLY] was tested, and the IC50 [8] was 4900 nM and the IC50 [9] was 262 nM.

SRGNRAFIAINLQKN [Der p 4 peptide 3324.0974 (position 416)] was tested, and the IC50 [10] was 546 nM, the IC50 [4] was 7390 nM and the IC50 [5] was 98 nM. It also gave an IC50 [6] of 84 nM.

KELKGAYVYFASDAS [Cla h 8 (236-250) peptide KELKGAYVYFASDAS, Peptide ID 3324.0598] showed an IC50 [1] of 4670 nM and an IC50 [2] of 518 nM.

In the case of FSGVAATESAYLAYR [Der f 1 (136-150) peptide 3324.0666], the IC50 [3] is reported as 1440 nM.

Work on PSVIPAARLFKAFIL [Aln g 1 (11-25) peptide 3324.0004] yielded an IC50 [3] of 7280 nM and an IC50 [7] of 63 nM.

Work on IVLNHMTGAQSGKGT [Der p 4 peptide 3324.0987 (position 96)] yielded an IC50 [5] of 65 nM.

In the case of YVGHDEFDAFVAYHI [Der p 4 (476-490) peptide 3324.0975], the IC50 [3] is reported as 273 nM and the IC50 [7] is reported as 177 nM.

RGIEYIQHNGVVQES [Der p 1 peptide 3324.0831 (position 176)] gave an IC50 [5] of 859 nM.

Work on AFMLAWNYGVPRVMS [Der p 4 (321-335) peptide 3324.0977] yielded an IC50 [3] of 5160 nM and an IC50 [7] of 185 nM.

DAFIAALTEALRVIA [Pha a 5 peptide, position 121, DAFIAALTEALRVIA (Peptide ID 3324.1432)] showed an IC50 [11] of 2040 nM and an IC50 [12] of 50000 nM.

Work on YVGHDEFDAFVAYHI [Der p 4 peptide 3324.0975 (position 476)] yielded an IC50 [10] of 5040 nM and an IC50 [4] of 8140 nM.

In the case of QKLMEDINVGFKAAV [Poa p 5 peptide, position 51, QKLMEDINVGFKAAV (Peptide ID 3324.1580)], the IC50 [13] is reported as 2180 nM.

Binder FDAFVAYHIGARIVS [Der p 4 (482-496) peptide 3324.0971] has an IC50 [3] of 71 nM.

For YQIAFSRGNRAFIAI [Der p 4 peptide 3324.0980 (position 411)], the IC50 [4] was 8720 nM and the IC50 [6] was 1410 nM.

In the case of REALAQTHSAIAVII [Der p 1 peptide 3324.0840 (position 226)], the IC50 [4] is reported as 629 nM and the IC50 [6] is reported as 32100 nM.

For EIYNMVKFRMIAGQE [Der p 4 (386-400) peptide 3324.0978], the IC50 [3] was 122 nM and the IC50 [7] was 5.3 nM.

SCWAFSGVAATESAY [Der p 1 peptide 3324.0832 (position 131)] was tested, and the IC50 [10] was 4400 nM.

Binder RTLNKIVYIKPAKNI [Bet v 6 peptide 3324.0387 (position 206)] has an IC50 [4] of 12500 nM, an IC50 [5] of 58 nM and an IC50 [6] of 3460 nM.

With EHRWREIYNMVKFRM [Der p 4 (381-395) peptide 3324.0986] the IC50 [3] was 549 nM and the IC50 [7] was 109 nM.

In the case of AFMLAWNYGVPRVMS [Der p 4 peptide 3324.0977 (position 321)], the IC50 [10] is reported as 992 nM, the IC50 [4] is reported as 8360 nM and the IC50 [5] is reported as 762 nM. It also gave an IC50 [6] of 339 nM.

Binder SDAKTLVLNIKYTRP [Lol p 3 peptide, position 11, SDAKTLVLNIKYTRP (Peptide ID 3324.1142)] has an IC50 [13] of 24000 nM.

KALWIIFSQNMNIKL [Cup a 1 (66-80) peptide KALWIIFSQNMNIKL] gave an IC50 [8] of 29000 nM and an IC50 [14] of 50000 nM.

GGSILKISNKFHTKG [Aln g 1 peptide 3324.0007 (position 111)] showed an IC50 [4] of 50000 nM.

With GGSILKISNKYHTKG [Bet v 1 peptide 3324.0352 (position 111)] the IC50 [5] was 6060 nM.

With IVYIKPAKNIYSFNE [Bet v 6 (211-225) peptide IVYIKPAKNIYSFNE] the IC50 [8] was 650 nM, the IC50 [14] was 5840 nM and the IC50 [9] was 19 nM.

With SRGNRAFIAINLQKN [Der p 4 (416-430) peptide 3324.0974] the IC50 [7] was 7.2 nM.

AFLLLGLAGNSSPSA [Cla h 5 (6-20) peptide, Peptide ID 3324.0576] gave an IC50 [1] of 718 nM.

Binder DIYNYMEPYVSKVDP [Dac g 4 (1-15) peptide DIYNYMEPYVSKVDP] has an IC50 [14] of 2020 nM.

Binder LEKISNEIKIVATPD [Bet v 1 peptide 3324.0353 (position 96)] has an IC50 [10] of 5100 nM, an IC50 [4] of 8670 nM and an IC50 [5] of 19 nM. The IC50 [6] was 8890 nM.

IEFRFYKEITNVFRG [Der p 4 peptide 3324.0976 (position 251)] was tested, and the IC50 [10] was 5520 nM, the IC50 [4] was 6200 nM and the IC50 [5] was 318 nM. For the same binder, the IC50 [6] was 4370 nM.

SGVAATESAYLAYRN [Der p 1 peptide 3324.0829 (position 136)] gave an IC50 [4] of 871 nM.

LEKISNEIKIVATPD [Bet v 1 (96-110) peptide 3324.0353] was tested, and the IC50 [3] was 6820 nM and the IC50 [7] was 7570 nM.

LIEKINAGFKAAVAA [Lol p 5 1 peptide, position 71, LIEKINAGFKAAVAA (Peptide ID 3324.1175)] gave an IC50 [11] of 50000 nM and an IC50 [12] of 147 nM.

Binder GCIHMARSLANEWRD [Cla h 8 (181-195) peptide GCIHMARSLANEWRD, Peptide ID 3324.0602] has an IC50 [1] of 673 nM and an IC50 [2] of 649 nM.

NLALSIKYNKEGDSM [Dac g 2 (16-30) peptide NLALSIKYNKEGDSM] showed an IC50 [8] of 8960 nM and an IC50 [9] of 258 nM.

With KAFVLDSDNLIPKVV [Que a 1 (21-35) peptide KAFVLDSDNLIPKVV] the IC50 [8] was 2640 nM and the IC50 [15] was 194 nM.

With PSVIPAARLFKAFIL [Aln g 1 peptide 3324.0004 (position 11)] the IC50 [4] was 11200 nM and the IC50 [6] was 1450 nM.

Binder EHRWREIYNMVKFRM [Der p 4 peptide 3324.0986 (position 381)] has an IC50 [10] of 8940 nM and an IC50 [6] of 4240 nM.

With NVFDEVIPTAFTVGK [Lol p 3 peptide, position 76, NVFDEVIPTAFTVGK (Peptide ID 3324.1141), listing 1 of 2 here] the IC50 [11] was 1700 nM and the IC50 [12] was 2900 nM.

Binder ASVIPPARLFKAFVL [Que a 1 (11-25) peptide ASVIPPARLFKAFVL] has an IC50 [8] of 1950 nM.

Work on IIFSQNMNIKLKMPL [Cup s 1 (91-105) peptide IIFSQNMNIKLKMPL] yielded an IC50 [8] of 36000 nM and an IC50 [9] of 1860 nM.

With RTLNKIVYIKPAKNI [Bet v 6 (206-220) peptide 3324.0387] the IC50 [3] was 41 nM.

NVFDEVIPTAFTVGK [Lol p 3 peptide, position 76, NVFDEVIPTAFTVGK (Peptide ID 3324.1141), listing 2 of 2 here] gave an IC50 [13] of 13200 nM.

IEFRFYKEITNVFRG [Der p 4 (251-265) peptide 3324.0976] showed an IC50 [7] of 35 nM.
